Data reported in patent US20150056219A1 (published 2015).

How the values were obtained:
[1] = target: m4-52
[2] = target: T1, mouse HVEM (mouse, UniProt Q80WM9 39-206)
T1 chain: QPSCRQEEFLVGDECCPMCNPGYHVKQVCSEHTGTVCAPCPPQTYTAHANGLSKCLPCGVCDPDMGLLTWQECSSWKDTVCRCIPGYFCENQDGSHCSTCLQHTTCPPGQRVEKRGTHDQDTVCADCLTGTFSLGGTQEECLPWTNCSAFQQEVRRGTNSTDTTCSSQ

[3] = target: T2, human HVEM (human, UniProt Q92956 39-202)
T2 chain: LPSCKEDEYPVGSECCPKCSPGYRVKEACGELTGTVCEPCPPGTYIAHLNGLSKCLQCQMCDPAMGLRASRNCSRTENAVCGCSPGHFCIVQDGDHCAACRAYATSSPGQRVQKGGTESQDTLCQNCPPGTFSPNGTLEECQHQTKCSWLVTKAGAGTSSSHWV

[4] = target: human LTβR (human, UniProt P36941 31-227)
[5] = target: mouse LTβR (mouse, UniProt P50284 31-223)
[6] = target: DcR3

B1: mHVEM (receptor)
chain: QPSCRQEEFLVGDECCPMCNPGYHVKQVCSEHTGTVCAPCPPQTYTAHANGLSKCLPCGVCDPDMGLLTWQECSSWKDTVCRCIPGYFCENQDGSHCSTCLQHTTCPPGQRVEKRGTHDQDTVCADCLTGTFSLGGTQEECLPWTNCSAFQQEVRRGTNSTDTTCSSQ
Q: Which Kd [1] does the source give for B1 here?
A: The Kd was 2.44 nM.

B2: hHVEM (receptor)
chain: LPSCKEDEYPVGSECCPKCSPGYRVKEACGELTGTVCEPCPPGTYIAHLNGLSKCLQCQMCDPAMGLRASRNCSRTENAVCGCSPGHFCIVQDGDHCAACRAYATSSPGQRVQKGGTESQDTLCQNCPPGTFSPNGTLEECQHQTKCSWLVTKAGAGTSSSHWV
Q: With B2 as the binder, how does the Kd [1] read?
A: Its Kd is 1.42 nM.

B3: m4-16 (protein)
chain: RRSHEVNPAAHLTGANFSLTGSGGPLLWETQLGQAFLRGLSYHDGALVVTKAGYYYIYSKVQLGGVGCPLGLASTITHGLYKRTPRYPEELELLVSQQSPCGRATSSSRVWWDSSFLGGVVHLEAGEEVVVRVLDDRLVRLRDGTRSYFGAFMV
Q: How did the Kd [2] turn out when B3 was run?
A: Its Kd is 2.22 nM.

Q: What about the Kd [3] of the same binder?
A: Its Kd is 2.24 nM.

Q: What about the Kd [4] of the same binder?
A: Its Kd is 0.13 nM.

Q: What about the Kd [5] of the same binder?
A: Its Kd is 0.192 nM.

B4: m4-14 (protein)
chain: RRSHEVNPAAHLTGANSSLTGSGGPLLWETQLGLAFLSGLSYHDGALVVTKAGYYYIYSKVQLRGVGCPLGLASTITHGLYKRTPRYPEELELLVSQQSPCGRATSSSRVWWDSSFLGGVVHLEAGEEVVVRVLGERLVRLRDGTRSYFGAFMV
Q: Which Kd [2] does the source give for B4 here?
A: Its Kd is 0.29 nM.

Q: And the Kd [3]?
A: The Kd was 38.5 nM.

Q: What about the Kd [4] of the same binder?
A: The Kd was 0.16 nM.

Q: What about the Kd [5] of the same binder?
A: The Kd was 0.094 nM.

B5: m4-7 (protein)
chain: RRSHEVNPAAHLTGANSSSTGSGGPLLWETQLGLAFLRGLSYHDGALVVTKAGYYYIYSKVQLRGVGCPLGLASTITHGLYKRTPRYPEELELLVSQQSPCGRATSSSRVWWDSSFLGGVVHLEAGEEVVVRVLDERLVRLRDGTRSYFGAFMV
Q: What does the source list for B5?
A: Kd [2]: 5.03 nM; Kd [3]: 0.92 nM; Kd [4]: 0.157 nM; Kd [5]: 0.118 nM

B6: hLTbR (receptor)
chain: QAVPPYASENQTCRDQEKEYYEPQHRICCSRCPPGTYVSAKCSRIRDTVCATCAENSYNEHWNYLTICQLCRPCDPVMGLEEIAPCTSKRKTQCRCQPGMFCAAWALECTHCELLSDCPPGTEAELKDEVGKGNNHCVPCKAGHFQNTSSPSARCQPHTRCENQGLVEAAPGTAQSDTTCKNPLEPLPPEMSGTMLM
Q: B6 was tested. Which Kd [1] did it give?
A: Its Kd is 1.12 nM.

B7: mLTbR (receptor)
chain: QLVPPYRIENQTCWDQDKEYYEPMHDVCCSRCPPGEFVFAVCSRSQDTVCKTCPHNSYNEHWNHLSTCQLCRPCDIVLGFEEVAPCTSDRKAECRCQPGMSCVYLDNECVHCEEERLVLCQPGTEAEVTDEIMDTDVNCVPCKPGHFQNTSSPRARCQPHTRCEIQGLVEAAPGTSYSDTICKNPPEPGAMLL
Q: Which Kd [1] does the source give for B7 here?
A: Its Kd is 0.68 nM.

B8: wt (ligand)
chain: LIQERRSHEVNPAAHLTGANSSLTGSGGPLLWETQLGLAFLRGLSYHDGALVVTKAGYYYIYSKVQLGGVGCPLGLASTITHGLYKRTPRYPEELELLVSQQSPCGRATSSSRVWWDSSFLGGVVHLEAGEKVVVRVLDERLVRLRDGTRSYFGAFMV
Q: Which Kd [6] does the source give for B8 here?
A: The Kd was 0.6 nM.

B9: wild type human LIGHT (ligand)
chain: LIQERRSHEVNPAAHLTGANSSLTGSGGPLLWETQLGLAFLRGLSYHDGALVVTKAGYYYIYSKVQLGGVGCPLGLASTITHGLYKRTPRYPEELELLVSQQSPCGRATSSSRVWWDSSFLGGVVHLEAGEKVVVRVLDERLVRLRDGTRSYFGAFMV
Q: How did the Kd [4] turn out when B9 was run?
A: The Kd was 1.3 nM.
